Experimental data as given in patent US8273357B2, “Antigen-carbohydrate conjugates” (Massachusetts Institute of Technology, priority 2004, dated 2012).

B1: (OVA)-3-1: ovalbumin modified via SMCC with nonasaccharide 3-1, average of three saccharides per OVA (conjugate)
chain: GSIGAASMEFCFDVFKELKVHHANENIFYCPIAIMSALAMVYLGAKDSTRTQINKVVRFDKLPGFGDSIEAQCGTSVNVHSSLRDILNQITKPNDVYSFSLASRLYAEERYPILPEYLQCVKELYRGGLEPINFQTAADQARELINSWVESQTNGIIRNVLQPSSVDSQTAMVLVNAIVFKGLWEKAFKDEDTQAMPFRVTEQESKPVQMMYQIGLFRVASMASEKMKILELPFASGTMSMLVLLPDEVSGLEQLESIINFEKLTEWTSSNVMEERKIKVYLPRMKMEEKYNLTSVLMAMGITDVFSSSANLSGISSAESLKISQAVHAAHAEINEAGREVVGSAEAGVDAASVSEEFRADHPFLFCIKHIATNAVLFFGRCVSP
B2: ovalbumin (protein, UniProt P01012 2-386, looked up)
Ovalbumin: B1 chain
notes: model antigen, unmodified

Columns and labels:
[1] = test system: OTI (CD8+) T cells in unfractionated splenocytes; test: Antigen presentation assay (MHC class I), unfractionated OTI splenocytes, [3H]thymidine T cell proliferation; format: cell-based, mouse
Protocol: FIGS. 3A and 3B are graphs showing that nonasaccharide 3-1-promoted presentation via MHC class I pathway for presentation to CD8^+ T cells. […] Unfractionated OTI splenocytes (3×10^5/well) were incubated with graded doses of OVA±(OVA)-3-1 (50 ng mL^−1) or (OVA)-3-1±(BSA)-3-1 (10 μg mL^−1). Incubations were performed for seventy-two hours with [^3H]thymidine (1 μCi) added for the last twelve hours. FIG. 3B is a graph showing that the monosaccharide mannose 3-6 targets a different receptor than 3-1. OTII splenocytes were incubated with graded doses of monosaccharide-modified OVA±(BSA)-3-1 and T cell proliferation was measured as described for FIG. 3A. Values present the mean of triplicate measurements.
Accessing the transporter of antigenic peptides (TAP) and thereby achieving cross-presentation of antigen by dendritic cells to MHC class I restricted CD8+ T cells led to efficient stimulation of these T cells and, in the steady state, their apoptotic deletion from the T cell repertoire^3. To determine if the receptor promoting (OVA)-3-1 uptake can process proteins through the MHC class I pathway, (OVA)-3-1 and OVA were incubated with unfractionated splenocytes isolated from OTI (CD8^+) mice. The T cells from transgenic OTI mice recognized an eight amino acid residue sequence (SIINFEKL (SEQ ID NO: 14)) derived from OVA and were therefore utilized to gauge the efficiency of DC presentation of MHC class I antigenic peptides. A moderate (10-fold) increase in the efficiency of MHC class I presentation with (OVA)-3-1 as compared to OVA alone was observed (FIG. 3A).
Pooled inguinal lymph nodes were dissociated in 10% Fetal Bovine Serum RPMI (supplemented with 2 mM L-glutamine) and either mechanically dissociated between two glass slides or, to improve the overall cell yield, incubated in the presence of collagenase (Boehringer) and EDTA for 25 minutes at 37° C./5% CO2 to dissociate DC-T cell clusters. For antigen presentation assays with whole splenocytes, isolated spleens were injected with collagenase/EDTA, gently teased apart and incubated as described above. […]

[2] = test system: purified T cells; test: Addition to purified T cells in the absence of antigen-presenting cells; format: cell-based, mouse; conditions: no antigen-presenting cells
[3] = test system: OTII T cells; test: Adoptive transfer, immunization, OVA peptide/CFA rechallenge at day 8, OTII cell count at day ten; format: in vivo, mouse
Protocol: FIGS. 8A and 8B are a series of dot plots (FIG. 8A) and a graph (FIG. 8B) showing that the oligosaccharide-mediated targeting of steady state dendritic cells leads to T cell tolerance. […] 2×10^7 OTII splenocytes were adoptively transferred into B6.Ly5.2/Cr recipients and then immunized by subcutaneous injection with PBS, OVA (200 ng), (OVA)-3-1 (200 ng), (OVA)-3-1 (200 ng)+mBSA (50 μg) or OVA peptide (100 μg) in Incomplete Freund's Adjuvant. At 8 days after these initial immunizations, mice received an antigenic rechallenge of OVA peptide (100 μg) in Complete Freund's Adjuvant. On day ten mice were sacrificed and cells were isolated from the draining lymph node, total T cells were purified by negative selection and the number of OTII T cells were counted by FACS as described for FIG. 6. […] Purified T cells from each experimental group were seeded at 3×10^5 cells/well with purified […] dendritic cells (9×10^4/well) and were incubated for twenty-four hours±OVA peptide (100 μg mL^−1) with [^3H]thymidine (1 μCi) added for the last ten hours. Prior to [^3H]thymidine addition, an aliquot of supernatant was removed for IFN-γ determination by ELISA.
At three days post-immunization, antibody-based targeting of the DEC-205 receptor led to a 6.5-fold enhancement of T cell activation relative to non-targeted antigen^2. After seven days, however, the activated T cell population diminished in number by 88% and the remaining T cells were unresponsive to systemic challenge of antigen in the highly stimulatory adjuvant CFA. […] To more fully understand the immunological consequences of these enhancements, OVA peptide (100 μg) was administered in CFA at eight days post-antigen immunization and the T cells' ability to respond to DC-presented peptide in vitro was assayed two days later (FIGS. 8A and 8B)^2: A positive control for T cell tolerance, consisting of a high dose administration of OVA peptide (100 μg) in Incomplete Freund's Adjuvant was also included. This regimen has been shown in a number of different studies to led to a state of T cell unresponsiveness upon antigen rechallenge^24,25.

[4] = test system: IFN-γ; test: IFN-γ ELISA of supernatants from purified dendritic cell/OTII T cell assay; format: cell-based, mouse; conditions: average; 72 h supernatants
Protocol: FIGS. 4A, 4B, 4C and 4D are graphs showing that CD11c^+ dendritic cells are the main antigen presenting cells presenting 3-1-targeted antigen. […] 1.5×10^4 Splenic CD11c^+ dendritic cells purified from C57BL/6 mice and 3.0×10^4 purified OTII T cells were incubated with OVA (starting concentration 300 μg mL^−1) or (OVA)-3-1 (starting concentration 25 μg mL^−1) in graded doses for eight-four hours with [^3H]thymidine (1 μCi) added for the last twelve hours. […] Purified CD11c^+ dendritic cells and OTII T cells were incubated with (OVA)-3-1 (25 μg mL^−1)±each potential inhibitor (100 μg mL^−1). T cell proliferation was determined as for FIG. 4A. […] CD11c^+ dendritic cells and OTII T cells were incubated with OVA or (OVA)-3-1±lipopolysaccharide ([…]). Also included are all ‘non-dendritic cells’ (macrophages and B cells) obtained during the purification of the dendritic cells. T cell proliferation was determined as described in FIG. 4A. […] Supernatants from cells described in FIG. 4C were collected at forty-eight and seventy-two hours and measured for IFN-γ by ELISA; the values presented are from the seventy-two hour time point. […]
75-150 μL aliquots of supernatant were sampled from antigen presentation assays at 24, 48, and 72 hours. […] 25 μL of each supernatant were diluted 1:1 with PBS/1% BSA and analyzed in triplicate for IFN-γ, IL-10, and IL-4 using DuoSet ELISA reagents from R&D Systems. […]

[5] = two days post-antigen rechallenge in CFA (day ten)

Molecule | direct activation of OTI T cells ([1]; (OVA)-3-1 50 ng mL^−1 added to OVA) | increase in the efficiency of MHC class I presentation as compared to OVA alone ([1]; OTI splenocytes) | presentation of antigenic peptides to CD8+ T cells ([1]; OTI splenocytes, graded doses) | T cell proliferation [2] | number of OTII T cells compared with OVA immunized mice ([3]; day ten after immunization) | T cell deletion in vivo ([3]; mouse, in vivo) | number of OTII cells relative to the saline control group [3, 5] | number of OTII cells relative to unmodified (soluble) OVA [3, 5] | less IFN-γ produced by T cells responding to OVA than to (OVA)-3-1 [4]
B1 | did not achieve this enhancement via direct activation of T cells | 10 fold | enhanced presentation | did not led to T cell proliferation | much greater number | not observed | 6 fold | 7.8 fold | –
B2 | – | – | – | – | – | – | – | – | 40%
